{
  "source": "patent US20040072368A1",
  "about": "“Lipoprotein receptor” (priority 2002, published 2004)",
  "key": {"[1]": {"target": "beta-subunit of ATP synthase (F1 domain) on the cell surface of human hepatocytes (human) (UniProt P06576)", "sequence (P06576 48-529 E274Q limits assumed)": "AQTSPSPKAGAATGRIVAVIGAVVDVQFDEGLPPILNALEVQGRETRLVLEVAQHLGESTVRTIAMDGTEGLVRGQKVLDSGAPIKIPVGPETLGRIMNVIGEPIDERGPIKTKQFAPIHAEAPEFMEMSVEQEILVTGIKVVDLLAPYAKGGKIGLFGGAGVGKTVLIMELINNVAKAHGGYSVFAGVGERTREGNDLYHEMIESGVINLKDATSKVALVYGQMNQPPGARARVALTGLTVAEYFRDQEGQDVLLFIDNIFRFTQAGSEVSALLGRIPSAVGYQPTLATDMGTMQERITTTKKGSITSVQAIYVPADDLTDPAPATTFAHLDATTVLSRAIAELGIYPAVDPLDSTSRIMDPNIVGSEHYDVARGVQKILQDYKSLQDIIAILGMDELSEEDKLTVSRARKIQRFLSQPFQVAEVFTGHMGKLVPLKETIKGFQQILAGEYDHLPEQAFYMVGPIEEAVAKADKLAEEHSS"}, "[2]": {"target": "beta-subunit of ATP synthase (F1 domain) on the cell surface of human hepatocytes (human) (UniProt P06576)", "assay": "cell-based or functional assay"}, "[3]": {"target": "ectopic ATP synthase of rat liver (rat) (UniProt P10719)", "sequence (P10719 47-529, chain 1 of 2)": "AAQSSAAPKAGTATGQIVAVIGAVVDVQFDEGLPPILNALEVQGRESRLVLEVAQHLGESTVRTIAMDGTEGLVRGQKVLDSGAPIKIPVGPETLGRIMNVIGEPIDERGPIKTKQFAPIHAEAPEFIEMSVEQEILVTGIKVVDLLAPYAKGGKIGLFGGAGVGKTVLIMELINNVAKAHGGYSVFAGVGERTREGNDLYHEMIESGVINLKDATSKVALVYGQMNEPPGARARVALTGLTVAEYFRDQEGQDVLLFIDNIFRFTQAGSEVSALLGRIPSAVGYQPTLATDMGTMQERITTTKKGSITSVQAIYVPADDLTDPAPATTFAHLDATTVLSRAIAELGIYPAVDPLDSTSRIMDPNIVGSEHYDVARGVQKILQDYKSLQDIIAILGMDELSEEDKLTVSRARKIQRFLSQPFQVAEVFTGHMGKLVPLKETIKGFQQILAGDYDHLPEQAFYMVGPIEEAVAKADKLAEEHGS", "sequence (P15999 44-553, chain 2 of 2, further chain)": "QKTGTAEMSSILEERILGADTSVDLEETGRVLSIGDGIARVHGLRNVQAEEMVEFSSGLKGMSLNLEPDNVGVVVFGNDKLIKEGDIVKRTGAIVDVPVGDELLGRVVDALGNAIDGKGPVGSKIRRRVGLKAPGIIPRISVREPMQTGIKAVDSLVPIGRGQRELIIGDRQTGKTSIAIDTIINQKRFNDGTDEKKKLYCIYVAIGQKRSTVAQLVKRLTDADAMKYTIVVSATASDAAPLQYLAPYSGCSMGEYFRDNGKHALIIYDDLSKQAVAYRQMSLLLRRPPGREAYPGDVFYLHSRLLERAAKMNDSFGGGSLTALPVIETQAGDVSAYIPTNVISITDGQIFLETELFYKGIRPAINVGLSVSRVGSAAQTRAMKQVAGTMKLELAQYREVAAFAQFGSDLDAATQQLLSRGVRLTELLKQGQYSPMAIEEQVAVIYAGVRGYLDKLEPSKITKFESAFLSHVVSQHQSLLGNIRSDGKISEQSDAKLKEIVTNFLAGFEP", "assay": "cell-based or functional assay"}},
  "data": [
    {"binder": "IF1 protein, natural inhibitor protein of mitochondrial F1-ATPase (protein, UniProt P01096 26-109, looked up, species assumed) ATPase inhibitor, mitochondrial: GSESGDNVRSSAGAVRDAGGAFGKREQAEEERYFRARAKEQLAALKKHHENEISHHAKEIERLQKEIERHKQSIKKLKQSEDDD", "values": [
      {"measurement": "IC50 (read off the curve), 125I-TG-HDL2 internalisation by HepG2 cells, without apoA-I", "setting": "[1]", "result": 8, "unit": "nM"},
      {"measurement": "[α-32P]-ADP generated from [α-32P]-ATP at the HepG2 cell surface (HPLC), 100 nM IF1", "setting": "[2]", "result": 48, "unit": "% decrease"},
      {"measurement": "TG-HDL2 internalisation by perfused rat liver, 45 min, 1 µM IF1", "setting": "[3]", "result": "< 45", "unit": "% decrease"}
    ]}
  ]
}
